Measured values from the supplement of paper PMC10126150.
± gives the standard deviation of the averaged measurements.

Tested on: ATP
Assay: switch fluorescence ratio, 500 uM ATP over buffer (Cy3 cluster intensity, sum of 5 cycles each) (fold (ratio)); higher = stronger signal-on switching upon ATP binding; sequences stand for … in TCGTCGGCAGCGTCAGATGTGTATAAGAGACAGTTTTTTTTTTTTTTTTTTTTTTTTT…TC
Conditions: aptamer strand: ATP DNA aptamer (quencher-CACCTGGGGGAGTATTGCGGAGGAAGG + anchor), 100 nM annealed; ATP concentration: 500 uM
In short: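 Clusters carrying Cy3-labelled switching strands on a modified Illumina MiSeq flow-cell were annealed to 100 nM quencher-labelled ATP aptamer and imaged in selection buffer. They were imaged again after 15 min with 500 uM ATP at 22 °C, over five buffer/ATP cycles with NaOH stripping and re-annealing in between. For each cluster, the fluorescence ratio is the summed Cy3 intensity of the target cycles divided by that of the buffer cycles, averaged per switch-domain sequence. Clusters outside 100-1000 RFU were left out.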
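Also: ATP exposure 15 min at 22 °C before imaging.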

Row | Sequence | switch fluorescence ratio
1 | TAAGGGAATC | 1.2 ± 0.31
2 | TATTTAAAAT | 0.995 ± 0.046
3 | GTTAAAAGGC | 0.986 ± 0.023
4 | GGGGCGGCGT | 1.02 ± 0.065
5 | GCGATAGGGC | 1.02 ± 0.065
6 | GGTTTTATGG | 0.988 ± 0.027
7 | TTTTTAGTCC | 1 ± 0.023
8 | GGGGGGGTTT | 1.01 ± 0.074
9 | AGCAATCGGT | 1.6 ± 0.42
10 | TTTAGATACG | 1.05 ± 0.014
11 | AAGTCTCGGG | 0.995 ± 0.0026
12 | AGCGGGGCGG | 1.02 ± 0.017
13 | CGGAGTTTTT | 0.9971 ± 0.0058
14 | CGATGAGGGG | 0.967 ± 0.03
15 | ACATGGATAA | 1.012 ± 0.0044
16 | GGTGTTCATG | 0.974 ± 0.024
17 | GGGAAATTGT | 0.997 ± 0.017
18 | GGGTAGGGTA | 0.9864 ± 0.0082
19 | GCGGGTTAGT | 1.13 ± 0.13
20 | GTGAGGCGGG | 1.009 ± 0.0024
21 | AGAAGATCTA | 0.9942 ± 0.0081
22 | CAGCTAGAGG | 1 ± 0.037
23 | TTTTAAACAG | 1.028 ± 0.0066
24 | GAATGGTCGC | 0.963 ± 0.026
25 | GTGAGGATTT | 0.986 ± 0.013

Row | Sequence | switch fluorescence ratio
26 | GGGATATCGA | 0.975 ± 0.021
27 | CTTCGTGACA | 1.042 ± 0.0027
28 | ACTTTGGGCA | 0.99606 ± 0.00098
29 | ACCGCTATGT | 1.57 ± 0.019
30 | TATTAAATTT | 1.031 ± 0.0051
31 | CAATGTGTCT | 1 ± 0.033
32 | GGAAACTCTC | 1 ± 0.015
33 | AGCTGATTTT | 0.982 ± 0.033
34 | GATTAGATGT | 0.9917 ± 0.0067
35 | GGACTTAGGG | 0.9839 ± 0.0075
36 | AAAGTGTGTT | 0.993 ± 0.025
37 | GCTAAATCGG | 1.027 ± 0.0082
38 | ATTTGAGTGC | 0.966 ± 0.002
39 | ACAACCGCTT | 1.13 ± 0.017
40 | AGTTGGGGCT | 1.01 ± 0.023
41 | GAGTGGATAG | 0.996 ± 0.018
42 | AACTTGATAT | 0.9835 ± 0.0019
43 | CGGGGGCTGT | 0.964 ± 0.0037
44 | GAATCTTGCG | 0.95976 ± 0.00094
45 | AAGTGCATGG | 0.986 ± 0.036
46 | ATGCGGACAG | 1.011 ± 0.0083
47 | TCAGGTATCG | 1 ± 0.021
48 | AACAACCATT | 1.05 ± 0.051
49 | GATTAAGGAG | 0.995 ± 0.011
50 | TTTAGGTAT | 1 ± 0.023

Row | Sequence | switch fluorescence ratio
51 | CGTATCGGGG | 0.993 ± 0.054
52 | GGGCTGGGTC | 0.98 ± 0.038
53 | TATTATCGTA | 0.9927 ± 0.0081
54 | GAGAAAATAT | 1 ± 0.038
55 | GGGTGTACTG | 1 ± 0.0089
56 | CCGTCTCTCC | 1.73 ± 0.093
57 | TCTCGTCTCT | 1.04 ± 0.028
58 | GTATTCTGTT | 0.997 ± 0.013
59 | TTCTTTATTT | 0.993 ± 0.027
60 | AGGTAGGCCT | 0.991 ± 0.025
61 | AGGGGCTTCG | 1.04 ± 0.015
62 | TCTTTTTAGT | 1 ± 0.029
63 | TGGAGCTCTG | 0.981 ± 0.027
64 | GTTTACATTG | 0.985 ± 0.042
65 | TCTGGGTAGC | 1 ± 0.061
66 | TAATAGGGCA | 1.002 ± 0.007
67 | ATATTTCATT | 0.961 ± 0.012
68 | CATATTTGCC | 1.03 ± 0.059
69 | ACGGTATTTG | 1.13 ± 0.035
70 | GTGGTTGGCA | 0.968 ± 0.033
71 | AGGTAAGTAG | 1.01 ± 0.031
72 | CCGGAAGAGA | 1.09 ± 0.035
73 | CGAGGGCATG | 1.07 ± 0.045
74 | CAGAGGGCGG | 0.981 ± 0.047
75 | ATAGTGATGT | 0.995 ± 0.04

Row | Sequence | switch fluorescence ratio
76 | CCTGTTTGAG | 1.04 ± 0.11
77 | ACGTTTTGAG | 1.0122 ± 0.00047
78 | CTAGGTGGTT | 0.991 ± 0.04
79 | AGGCAGTCCA | 1.003 ± 0.0065
80 | CGGGGCATTG | 1.013 ± 0.0046
81 | TGAGGAATGG | 0.9987 ± 0.0036
82 | TGCATAAGAA | 0.955 ± 0.03
83 | TAGAAATGCG | 1.038 ± 0.0038
84 | TAAGTAGGGC | 1.2 ± 0.18
85 | CGGGTTTAAC | 0.998 ± 0.021
86 | TTTAGAGCGT | 0.9933 ± 0.0013
87 | CCTTTTGTTA | 0.989 ± 0.02
88 | TTATAAATTG | 0.991 ± 0.03
89 | TAAGAGGA | 0.991 ± 0.015
90 | GGTCGCGGGT | 1 ± 0.038
91 | TAATATTGGG | 0.989 ± 0.029
92 | GATGCAAGGG | 1.83 ± 0.14
93 | CAGCGTGGCA | 1 ± 0.021
94 | GGAATGGGTC | 0.9736 ± 0.0087
95 | GAGGTAGATA | 1.03 ± 0.046
96 | GCTTGTGATC | 1.01 ± 0.028
97 | AAATTTATAA | 0.984 ± 0.044
98 | CGGGAATCTC | 1.085 ± 0.0081
99 | GACGCTCAGC | 1.39 ± 0.019
100 | GGTACTGGGA | 0.997 ± 0.0025

Row | Sequence | switch fluorescence ratio
101 | TGATATGTGT | 0.973 ± 0.053
102 | CTATGAGTGA | 1.01 ± 0.018
103 | GGTCCTGGAC | 1.02 ± 0.019
104 | TTTGGATGTT | 1 ± 0.011
105 | TTTTCAGGAA | 1.018 ± 0.0092
106 | TGGGGTACCT | 1.08 ± 0.077
107 | GGGCTTGTAA | 0.964 ± 0.012
108 | TAATCTTAGG | 0.9838 ± 0.0079
109 | CGCTTAACCG | 1.04 ± 0.043
110 | GGTTAGTGTG | 0.997 ± 0.015
111 | TAAATGGGTT | 1 ± 0.027
112 | GGCCCGGTGC | 1.08 ± 0.12
113 | TTGGTTACTT | 1.01 ± 0.011
114 | AGTTAAAGGT | 0.992 ± 0.023
115 | TTCACTTTTT | 1 ± 0.012
116 | ACGGGTTTGT | 0.9774 ± 0.0036
117 | ATGCAAATGC | 1.41 ± 0.017
118 | TTGTAGCCGT | 0.983 ± 0.029
119 | GGGGTCCTAG | 0.9959 ± 0.0065
120 | AAATTGGACA | 1.04 ± 0.049
121 | TATATTACCA | 1.01 ± 0.051
122 | GCTGCAGGGC | 1.37 ± 0.44
123 | ATAAAGGAAG | 0.99 ± 0.011
124 | GCGGGTGACC | 1.02 ± 0.034
125 | TTTAGAAACT | 1.027 ± 0.0067

Row | Sequence | switch fluorescence ratio
126 | TTTAGAATAC | 1.51 ± 0.42
127 | CGTCCGAAGT | 2.03 ± 0.18
128 | CTGATACATT | 0.9715 ± 0.0069
129 | TCCGGGTATC | 1.33 ± 0.04
130 | GCTTTAGTCA | 0.967 ± 0.034
131 | ATTGGGAGTA | 0.988 ± 0.0099
132 | GGAGGGGGGG | 1.02 ± 0.042
133 | GAAATAAGGT | 0.99 ± 0.024
134 | TCGGTTTGGT | 1.01 ± 0.024
135 | TTCTAGTCTA | 0.987 ± 0.01
136 | CGCGCAGAT | 1.02 ± 0.025
137 | TTATAAAAGG | 1.031 ± 0.0021
138 | AGAGGTGACA | 0.999 ± 0.061
139 | CGATAAGAAG | 1.01 ± 0.017
140 | ACAGTTGGCT | 1.0179 ± 0.00096
141 | TTTCGGACCT | 1.3458 ± 0.00061
142 | GGGTTAGGTA | 0.96 ± 0.053
143 | ATACGGGGCT | 1.03 ± 0.027
144 | CTAGGGAAAC | 1.002 ± 0.009
145 | GCAGTATAGC | 0.99 ± 0.011
146 | CATGTAGTGC | 1.03 ± 0.089
147 | CGTTCGGGTT | 0.989 ± 0.044
148 | ACCCGCTTTT | 1.38 ± 0.31
149 | TTTCTGTCGG | 1.02 ± 0.032
150 | TTCAATTCAC | 1.37 ± 0.41

Row | Sequence | switch fluorescence ratio
151 | CTGTTGGGAA | 1.04 ± 0.091
152 | TGATAGCGGA | 1.03 ± 0.035
153 | TTAGTTGTTT | 0.964 ± 0.023
154 | TATAGGAAAA | 1.35 ± 0.61
155 | CAAGGGGCGT | 1.01 ± 0.035
156 | ACATGGAGAG | 0.985 ± 0.052
157 | AAGGGGGGCA | 0.966 ± 0.037
158 | TTAGGGCTAG | 0.9932 ± 0.0081
159 | AAGTTGTGCT | 0.972 ± 0.014
160 | ACTTTTTAGT | 0.986 ± 0.05
161 | TAGTTTTACC | 1 ± 0.013
162 | ACAAAGGGAC | 1.06 ± 0.12
163 | TGACTCGGTG | 0.984 ± 0.015
164 | AGTAGTTGAA | 0.988 ± 0.044
165 | AAGACCGGCA | 1.01 ± 0.038
166 | TAAGATGATC | 0.988 ± 0.048
167 | CCATAACTTA | 0.9782 ± 0.0033
168 | GTGTTCAACG | 0.994 ± 0.04
169 | AGGTCTACTA | 1.05 ± 0.059
170 | AGAAGTACTA | 1.22 ± 0.036
171 | GTTTTACGTG | 0.998 ± 0.024
172 | GGGTGACAGG | 0.978 ± 0.017
173 | GCTAGGGGGT | 1.02 ± 0.09
174 | TCTGAACGGT | 0.983 ± 0.023
175 | TTAAGGACTT | 1.01 ± 0.011

Row | Sequence | switch fluorescence ratio
176 | AGGGTTTGGA | 1 ± 0.02
177 | AAATCAGTGG | 0.998 ± 0.031
178 | TTTGGTTCTG | 1.01 ± 0.012
179 | TTAGAGGCGT | 1.006 ± 0.0053
180 | GTTGATCAT | 0.983 ± 0.015
181 | CAGGGTTGGT | 0.977 ± 0.033
182 | TGTTGCGGGC | 1 ± 0.12
183 | GAGTGGAGAC | 0.977 ± 0.053
184 | TTTGATACCT | 1.266 ± 0.0022
185 | TCGGGTCTGC | 1.01 ± 0.015
186 | TTTAGCT | 1.08 ± 0.097
187 | GGGGGAAGTT | 0.986 ± 0.042
188 | GTATATATAT | 0.979 ± 0.028
189 | CAGAGATTCT | 0.992 ± 0.0077
190 | TGATCCAGGG | 0.9873 ± 0.0081
191 | TAGTCTATCG | 0.969 ± 0.025
192 | GGCGTTGGCT | 0.985 ± 0.011
193 | TTTAGGTTTG | 1 ± 0.066
194 | CGAGTTGGCT | 1 ± 0.032
195 | AGGGTCTGTT | 0.978 ± 0.012
196 | GTGCGCATGG | 1.13 ± 0.067
197 | ATTTTATCAG | 1.02 ± 0.018
198 | TTGCCTGTGT | 1.039 ± 0.0012
199 | TACCGAAGGG | 0.989 ± 0.028
200 | ATAGAATCAG | 0.975 ± 0.038
